Results taken from patent US20240287484.

What was measured:
Details in all cases: qPCR; 3 mM MgCl2, 37 C
[1] = test system: T1, MG153-19 RT (uncultivated organism (metagenomic))
T1 sequence: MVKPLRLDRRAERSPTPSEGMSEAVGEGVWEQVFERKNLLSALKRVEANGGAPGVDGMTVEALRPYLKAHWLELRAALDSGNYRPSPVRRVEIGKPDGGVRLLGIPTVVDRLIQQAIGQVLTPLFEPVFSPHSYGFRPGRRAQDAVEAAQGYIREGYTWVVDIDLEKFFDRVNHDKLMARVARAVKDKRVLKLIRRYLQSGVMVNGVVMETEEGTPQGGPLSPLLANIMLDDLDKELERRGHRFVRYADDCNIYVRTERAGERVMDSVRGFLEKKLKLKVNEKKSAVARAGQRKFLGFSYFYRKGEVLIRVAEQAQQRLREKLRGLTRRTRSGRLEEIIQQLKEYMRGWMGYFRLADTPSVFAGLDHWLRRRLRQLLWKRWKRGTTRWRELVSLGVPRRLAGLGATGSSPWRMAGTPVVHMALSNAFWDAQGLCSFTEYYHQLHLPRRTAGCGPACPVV

[2] = test system: T2, MG153-32 RT (uncultivated organism (metagenomic))
T2 sequence: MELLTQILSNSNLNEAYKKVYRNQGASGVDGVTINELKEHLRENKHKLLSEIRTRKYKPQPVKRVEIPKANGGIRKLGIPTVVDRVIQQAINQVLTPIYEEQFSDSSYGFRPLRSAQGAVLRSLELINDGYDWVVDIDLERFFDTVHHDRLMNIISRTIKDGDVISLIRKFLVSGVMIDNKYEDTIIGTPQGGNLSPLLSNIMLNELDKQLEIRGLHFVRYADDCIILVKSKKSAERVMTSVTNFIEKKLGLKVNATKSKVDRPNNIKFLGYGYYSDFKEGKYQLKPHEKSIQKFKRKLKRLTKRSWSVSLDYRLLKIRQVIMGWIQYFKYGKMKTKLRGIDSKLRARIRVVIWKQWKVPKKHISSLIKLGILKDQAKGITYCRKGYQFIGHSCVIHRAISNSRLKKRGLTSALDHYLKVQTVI

[3] = test system: T3, MG153-40 RT (uncultivated organism (metagenomic))
T3 sequence: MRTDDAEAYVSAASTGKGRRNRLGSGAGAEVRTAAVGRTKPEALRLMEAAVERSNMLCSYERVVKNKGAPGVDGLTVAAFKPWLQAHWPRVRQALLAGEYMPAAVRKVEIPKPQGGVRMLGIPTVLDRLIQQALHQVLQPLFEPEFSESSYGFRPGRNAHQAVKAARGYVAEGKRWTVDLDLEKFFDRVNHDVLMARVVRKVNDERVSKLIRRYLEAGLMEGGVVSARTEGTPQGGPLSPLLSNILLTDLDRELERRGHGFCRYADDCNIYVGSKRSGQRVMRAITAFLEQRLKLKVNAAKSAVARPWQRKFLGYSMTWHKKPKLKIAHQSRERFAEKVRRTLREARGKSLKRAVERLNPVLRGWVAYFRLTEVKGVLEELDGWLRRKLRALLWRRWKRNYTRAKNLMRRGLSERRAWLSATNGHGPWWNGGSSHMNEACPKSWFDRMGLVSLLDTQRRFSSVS

[4] = test system: T4, MG153-43 RT (uncultivated organism (metagenomic))
T4 sequence: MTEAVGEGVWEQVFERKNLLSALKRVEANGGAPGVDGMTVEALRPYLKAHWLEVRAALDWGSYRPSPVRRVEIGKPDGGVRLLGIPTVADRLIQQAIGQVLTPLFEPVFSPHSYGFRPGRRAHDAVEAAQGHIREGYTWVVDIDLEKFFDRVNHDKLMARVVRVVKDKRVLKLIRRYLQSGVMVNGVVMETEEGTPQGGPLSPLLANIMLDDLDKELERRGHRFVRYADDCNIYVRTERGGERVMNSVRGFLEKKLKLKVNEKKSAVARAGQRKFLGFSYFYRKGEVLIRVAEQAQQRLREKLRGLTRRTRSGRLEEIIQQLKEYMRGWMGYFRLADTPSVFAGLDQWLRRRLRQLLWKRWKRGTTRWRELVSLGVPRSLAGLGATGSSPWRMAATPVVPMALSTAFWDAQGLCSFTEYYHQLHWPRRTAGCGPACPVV

[5] = test system: T5, MG153-47 RT (uncultivated organism (metagenomic))
T5 sequence: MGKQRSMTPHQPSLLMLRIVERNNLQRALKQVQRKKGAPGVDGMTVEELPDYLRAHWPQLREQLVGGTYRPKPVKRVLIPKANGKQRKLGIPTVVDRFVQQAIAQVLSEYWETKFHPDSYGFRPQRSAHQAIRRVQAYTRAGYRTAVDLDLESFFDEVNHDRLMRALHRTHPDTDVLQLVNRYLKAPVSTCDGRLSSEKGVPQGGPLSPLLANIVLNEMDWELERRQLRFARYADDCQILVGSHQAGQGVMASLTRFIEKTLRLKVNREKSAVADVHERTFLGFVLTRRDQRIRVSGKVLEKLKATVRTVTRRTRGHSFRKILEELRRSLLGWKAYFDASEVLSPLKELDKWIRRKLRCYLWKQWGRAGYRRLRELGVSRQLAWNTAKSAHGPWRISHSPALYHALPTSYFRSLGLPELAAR

[6] = test system: T6, MG153-56 RT (uncultivated organism (metagenomic))
T6 sequence: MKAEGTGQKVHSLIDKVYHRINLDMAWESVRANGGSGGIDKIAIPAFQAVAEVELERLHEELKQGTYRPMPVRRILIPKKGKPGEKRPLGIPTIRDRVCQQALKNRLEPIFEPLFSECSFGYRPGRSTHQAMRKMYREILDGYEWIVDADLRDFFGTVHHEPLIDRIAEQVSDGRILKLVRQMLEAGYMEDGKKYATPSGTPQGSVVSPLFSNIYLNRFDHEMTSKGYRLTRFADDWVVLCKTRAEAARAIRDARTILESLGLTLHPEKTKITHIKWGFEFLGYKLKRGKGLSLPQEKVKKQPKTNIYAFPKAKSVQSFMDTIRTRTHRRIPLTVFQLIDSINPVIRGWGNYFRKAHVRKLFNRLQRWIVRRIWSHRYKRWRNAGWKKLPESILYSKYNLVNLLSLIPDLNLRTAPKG

Measured: activity (fold over background)

200 nt RNA template annealed to DNA primer
> 10: all assays above
